According to patent US20200155602A1 (IMMATICS BIOTECHNOLOGIES, published 2020):

Biological target: T1, HLA-A*02:01 (human)
T1 construct: Peptide-receptive HLA-A*02:01 monomer obtained by UV cleavage of a UV-sensitive ligand; captured on streptavidin plates; also called peptide-receptive MHC molecules; MHC class I
Test: UV-ligand exchange, anti-b2m ELISA; grade of peptide exchange yield (>10% = +; >20% = ++; >50 = +++; >75% = ++++)
Text: Candidate peptides for T cell based therapies according to the present invention were further tested for their MHC binding capacity (affinity). The individual peptide-MHC complexes were produced by UV-ligand exchange, where a UV-sensitive peptide is cleaved upon UV-irradiation, and exchanged with the peptide of interest as analyzed. Only peptide candidates that can effectively bind and stabilize the peptide-receptive MHC molecules prevent dissociation of the MHC complexes. To determine the yield of the exchange reaction, an ELISA was performed based on the detection of the light chain (β2m) of stabilized MHC complexes. The assay was performed as generally described in Rodenko et al. (Rodenko et al., 2006).
96 well MAXISorp plates (NUNC) were coated over night with 2 ug/ml streptavidin in PBS at room temperature, washed 4× and blocked for 1 h at 37° C. in 2% BSA containing blocking buffer. Refolded HLA-A*02:01/MLA-001 monomers served as standards, covering the range of 15-500 ng/ml. Peptide-MHC monomers of the UV-exchange reaction were diluted 100-fold in blocking buffer. Samples were incubated for 1 h at 37° C., washed four times, incubated with 2 ug/ml HRP conjugated anti-β2m for 1 h at 37° C., washed again and detected with TMB solution that is stopped with […]. Absorption was measured at 450 nm. […]

Binder: SLTSFLISL
- peptide exchange yield: 50 to 75%
